Literature values in patent publication US20240216555A1, “TARGETING AND TREATMENT OF CANCEROUS CELLS USING RADIOLABELED GRP78-BINDING AGENTS” (University of Kentucky Research Foundation, priority 2022, published 2024).
Where no end group is shown, it is not given here.

Columns and labels:
csGRP78 [1] = molecular target: T1, csGRP78 (Homo sapiens, UniProt P11021); conditions: previously shown; cited from earlier work
csGRP78 [2] = molecular target: T1, csGRP78; conditions: previously shown; cited from earlier work; remark: listed apart in the source

T1 sequence (P11021 19-654): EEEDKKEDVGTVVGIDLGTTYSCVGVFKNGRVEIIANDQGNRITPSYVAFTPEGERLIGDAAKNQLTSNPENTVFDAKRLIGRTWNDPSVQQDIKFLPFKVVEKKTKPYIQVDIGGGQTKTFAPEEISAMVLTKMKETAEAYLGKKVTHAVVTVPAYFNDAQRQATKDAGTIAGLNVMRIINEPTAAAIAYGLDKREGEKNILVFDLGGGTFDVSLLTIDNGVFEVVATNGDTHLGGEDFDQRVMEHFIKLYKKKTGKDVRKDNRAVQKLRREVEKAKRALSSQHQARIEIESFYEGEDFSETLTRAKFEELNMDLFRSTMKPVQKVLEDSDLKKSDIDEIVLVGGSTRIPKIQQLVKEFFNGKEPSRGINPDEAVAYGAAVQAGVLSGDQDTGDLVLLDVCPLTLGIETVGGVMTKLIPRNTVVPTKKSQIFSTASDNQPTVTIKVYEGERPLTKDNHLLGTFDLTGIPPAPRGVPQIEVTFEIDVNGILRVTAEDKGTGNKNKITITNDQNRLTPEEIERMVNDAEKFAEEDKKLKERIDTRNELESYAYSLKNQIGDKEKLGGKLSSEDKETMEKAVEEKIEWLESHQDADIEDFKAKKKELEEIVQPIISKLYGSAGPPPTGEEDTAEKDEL

Question: Which results are given for “CTVALPGGYVRVC (also: cyclic (type not given here))”?
Answer: binding to csGRP78 (csGRP78 [1]): bind to csGRP78; translocation to the ER (csGRP78 [2]): translocate to the ER
